Laboratory results from patent US20240400651A1.

Molecular target: Spike proteins of the wild-type Wuhan-Hu-1 strain and the D614G, B.1.1.7, B.1.351, P.1, B.1.526 and
Test: cell-based or functional assay

B1: Mab #25 (antibody, V domains shown)
VH: EVQLVESGAEVKKPGESLKISCKGSGYTFTRYWIGWVRQMPGKGLEWMGIIYPGDSDTRYSPSFQGHVTISADKSISTAYLQWNSLKASDTAMYYCARLPQYCSNGVCQRWFDPWGQGTLVTVSS
VL: EIVLTQSPSSVSASVGDRVTITCRASQGISSWLAWYQQKPGKAPKLLIYAASSLQSGVPSRFSGSGSGTDFTLTISSLQPEDFATYYCQQGNSFPYTFGQGTNLEIK
IC50, infectivity assays using pseudoviruses: 0.05 to 0.2 µg/mL
